One assay deals with T1, MbpR (Lactiplantibacillus plantarum, UniProt F9USQ8).
T1 sequence (F9USQ8 1-306): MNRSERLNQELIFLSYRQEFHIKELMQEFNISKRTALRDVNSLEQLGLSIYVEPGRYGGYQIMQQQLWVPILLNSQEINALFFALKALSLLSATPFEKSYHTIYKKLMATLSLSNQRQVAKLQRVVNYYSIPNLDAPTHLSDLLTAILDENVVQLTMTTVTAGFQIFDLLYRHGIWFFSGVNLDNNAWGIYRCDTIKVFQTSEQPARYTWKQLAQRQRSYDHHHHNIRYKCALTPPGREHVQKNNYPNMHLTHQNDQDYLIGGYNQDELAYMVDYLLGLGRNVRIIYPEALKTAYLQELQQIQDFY
The assay can be described thus: ITC. The class given is binding.

The target of assay [1] is mucin binding domain of MbpA (L. plantarum WCFS1). The assay can be described thus: MST.
The target of assay [2] is mucin binding domain of MbpB (L. plantarum WCFS1). The assay can be described thus: MST.

As usually defined, the Kd is the free concentration of one partner at which half of the binding sites on the other are occupied at equilibrium, for simple one-to-one binding. Low values mean higher affinity, high ones lower affinity. On to `Nc1nc2c(ncn2[C@@H]2O[C@@H]3CO[P@](=O)(O)O[C@H]4[C@@H](O)[C@H](n5cnc6c(=O)[nH]c(N)nc65)O[C@@H]4CO[P@](=O)(O)O[C@H]3[C@H]2O)c(=O)[nH]1` [c-di-GMP], for which binding at MbpR was put at a Kd of 220 nM.
With mucin (natural protein), the equilibrium dissociation constant (Kd) in assay [1] is 530 nM; in assay [2], 690 nM.

For the origin of these results see PMC11880434 (Nature Communications, 2025).
